The results in this text go back to patent US12723078 (University of Texas, dated 2026).

One may read the EC50 as the midpoint of the concentration-response curve. In general, Kd refers to the concentration at which binding is half-saturated. By koff is commonly meant the first-order rate constant of dissociation. Broadly, the kon is the rate constant with which the complex forms. As a reminder, the EC50 (read off the curve) is the midpoint of the concentration-response curve.

Experiment [1] concerns the target T1, recombinant LILRB1 (human, UniProt Q8NHL6 24-461).
T1 construct: LILRB1-Fc proteins were also made; also called LILRB1 recombinant proteins
The experiment can be described thus: ELISA, coated recombinant LILRB1, antibody titration.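 Further: serially diluted anti-LILRB1 antibodies incubated 60 min at 37 °C on plates coated with 50 ng/well recombinant protein, TMB colorimetric development read as absorbance at 450 nm.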 Background: ELISA stands for enzyme-linked immunosorbent assay.

In experiment [2] the target is T1, recombinant LILRB1. As to the kind of experiment: BLI (Octet RED96), antibody on biosensor, recombinant LILRB1 in solution.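 Further: Background-subtracted sensorgrams fitted with a one-to-one binding model, KD taken as koff over kon.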
Experimental: (§1) Following a short baseline in kinetics buffer for 20 s, the loaded biosensors were exposed to solutions of recombinant LILRB1 in a range of concentrations (0-500 nM). After background was subtracted, data was fit to a 1:1 binding model to extract an association rate ($kon$) and dissociation rate ($koff$). The KD was calculated using the ratio $koff/kon$. […] All experiments were performed with shaking at 1,000 rpm. All raw data was processed using ForteBio Octet Data Analysis Software 9.0.
The target in a further experiment is T2, LILRA1 (human, UniProt O75019).
T2 construct: not the cell-surface form of MOLECULES; also called LILRA1 protein of the ELISA and Octet specificity tests
T2 sequence (O75019 17-461 limits assumed): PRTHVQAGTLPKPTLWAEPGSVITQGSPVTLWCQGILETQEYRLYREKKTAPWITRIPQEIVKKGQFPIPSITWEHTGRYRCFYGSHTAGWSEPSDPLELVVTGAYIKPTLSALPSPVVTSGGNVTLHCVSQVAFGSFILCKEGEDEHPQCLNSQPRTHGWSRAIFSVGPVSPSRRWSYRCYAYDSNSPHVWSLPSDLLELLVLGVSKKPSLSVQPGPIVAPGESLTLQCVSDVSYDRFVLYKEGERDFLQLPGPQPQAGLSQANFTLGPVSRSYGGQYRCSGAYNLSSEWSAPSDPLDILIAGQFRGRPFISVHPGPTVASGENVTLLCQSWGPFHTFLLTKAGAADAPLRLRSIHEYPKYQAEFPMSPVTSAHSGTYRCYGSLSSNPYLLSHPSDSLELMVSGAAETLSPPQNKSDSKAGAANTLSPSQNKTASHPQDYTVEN
The experiment can be described thus: Octet RED96, cross-reactivity table.

The target in experiment [3] is T3, recombinant human LILRB1 protein (human, UniProt Q8NHL6 24-461).
T3 construct: ELISA and Octet methods say only 'recombinant LILRB1'; also called recombinant LILRB1; LILRB1 recombinant proteins
T3 sequence (Q8NHL6 24-461 limits assumed): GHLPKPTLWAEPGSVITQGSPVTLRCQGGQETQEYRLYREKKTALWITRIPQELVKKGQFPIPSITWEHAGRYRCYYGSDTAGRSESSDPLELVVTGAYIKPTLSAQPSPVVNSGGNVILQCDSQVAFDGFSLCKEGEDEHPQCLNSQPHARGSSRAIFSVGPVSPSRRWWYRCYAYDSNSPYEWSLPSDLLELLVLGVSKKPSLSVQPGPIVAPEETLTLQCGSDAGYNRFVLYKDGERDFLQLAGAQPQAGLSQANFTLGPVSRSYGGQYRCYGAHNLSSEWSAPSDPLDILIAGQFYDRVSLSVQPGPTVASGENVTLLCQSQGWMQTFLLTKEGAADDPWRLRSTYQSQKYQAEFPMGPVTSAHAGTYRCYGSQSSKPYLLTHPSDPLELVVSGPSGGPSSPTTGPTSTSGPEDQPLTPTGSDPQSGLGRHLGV
As to the kind of experiment: Octet RED96, LILRB1 at 100, 33.3, 11.1 and 3.7 nM. For orientation: Biolayer interferometry detects binding as a change in optical thickness at a sensor tip.
Experimental: as §1

The target of experiment [4] is T3, recombinant human LILRB1 protein. The experiment can be described thus: ELISA.
Experimental: (§2) ELISA. LILRB1 recombinant proteins (50 ng/well, 100 μL per well) were coated on Corning 96-well ELISA plates at 37° C. for 4 hrs. Plates were blocked for 2 hrs at 37° C. with 5% non-fat milk. After washing with PBST, 100 μL of serial diluted anti-LILRB1 antibodies were added and incubated for 60 min at 37° C. […] Plates were washed again with PBST for another 5 times, then the immunoreactions were developed with TMB substrates (Sigma, Cat #T0440) and stopped by the addition of 2 M H_2SO_4 before the plate was read at 450 nm.
Experiment [5] shares this target. The experiment can be described thus: ELISA. This is another data set of the same source.
Experimental: as §2

T1 sequence (Q8NHL6 24-461 limits assumed): as above

B1: B1-#178-2 (antibody, V domains shown)
VH: QKQLVESGGGLVQPEGSLALTCTASGFSFSSSYWICWVRQAPGKGLEWIACIYAGSSGSTYYASWVNGRFTVFKTSSTTVTLQMTSLTAADTATYFCARGGTSYRLDLWGPGTLVTVSS
VL: ELVLTQTPSSKSVAVGDTVTINCQASDNVYSNNYTSWFQQKPGQPPKQLLYYAAYRASGVPSRFKGSGSGTEFTLSISDVVCDDAATYYCSGHKDYSDDGSTFGGGTEVEIK
notes: recombinant rabbit IgG
With B1, in the experiment with recombinant LILRB1 [1], the EC50 turned out to be 0.0143 µg/mL. For the same molecule, in the experiment with recombinant LILRB1 [2], the Kd stood at 1.59 nM, the koff came to 0.000273 s⁻¹ and the kon was 172000 M⁻¹ s⁻¹.

B2: B1-#198 (antibody, V domains shown)
VH: QSLEESGGGLVKPEGSLTLTCTASGFDLSNNYYICWVRQAPGKGLELIACVDSDLTDSADYASWAKGRFTISKTSSTTVTLQMTSLTAADTATYFCAGSGSGYYYYYGMDLWGPGTLVTISS
VL: ELDMTQTPASVSEPVGGTVTIKCQASQSIGSYLAWYQQKPGQPPKLLAFYASTLKSGVPPRFKGSGSGTEFTLTISDLECADAATYYCQSNRLSSSDVNAFGGGTEVEIK
notes: recombinant rabbit IgG
Consider B2, for which, in the experiment with recombinant LILRB1 [1], the EC50 turned out to be 0.00942 µg/mL. In the experiment with recombinant LILRB1 [2], the dissociation constant (Kd) worked out at 0.0272 nM, the koff was 5.92e-06 s⁻¹ and the kon stood at 218000 M⁻¹ s⁻¹.

B3: B1-#22 (antibody, V domains shown)
VH: EQSLEESGGGLVKPGASLTLTCKASGFDFSSNDYMCWVRQAPGKGLEWIGCIYGGDGHTYYATWAKGRFTISKASSTTVTLQMTSLTAADTASYFCARGYSYGDTGYADAILTLDLWGPGTLVTVSS
VL: ELDLTQTPASVEAAVGGTVTIKCQASQTIGSYLSWYQQKPGQRPKLLIYEASKLASGVPSWFKGSGSGTEFTLTISDLECADAATYYCQSNYYRAGGNYGGAFGGGTEVEIK
notes: recombinant rabbit IgG
Take B3: the EC50 with recombinant LILRB1 [1] came to 0.0292 µg/mL. For the same molecule, in the experiment with recombinant LILRB1 [2], the equilibrium dissociation constant (Kd) stood at 0.611 nM, the koff is 8.62e-05 s⁻¹ and the kon was found to be 141000 M⁻¹ s⁻¹.

B4: B1-#3 (antibody, V domains shown)
VH: QSLEESEGDLVKPEGSLTLTCKASGFDFSSDAMCWVRQAPGKGLEWIGCIYNGDEITDHASWAKGRFTISKTSPTTVTLQMTSLTVADTATYFCARAVYSDGGAGYPYMYGMDLWGPGTLVTVSS
VL: ELDMTQTPASVEAAVGGTVTIKCQASQNIYSYLVWYQQKPGQPPKLLISKASTLASGVSSRFKGSGSGTEFTLTINDLECADAATYYCQTNYFSSTSHFGVFTFGGGTELEIK
notes: IgG; also called antagonistic B1-3
Take B4: the binding result with LILRA1 is “binds”.

B5: B1-#209 (antibody, V domains shown)
VH: SQSVEESGGDLVKPGGTLTLTCTASRIDLNNYYYISWVRQAPGKGLEWIGVVATDSSVTWYASWAKGQFTISKTSSTTVTLQMTSLTAADTATYFCARGSGAATNGVWWVMGDGMDLWGPGTLVTVSS
VL: ELVMTQTPASVSEPVGGTVTIKCQASQSISSYLSWYQQKPGQPPKRLIYKASTLASGVPSRFKGSGSGTEFTLTISGVQCADAATYYCQNNYHSGSSNGGGFAFGGGTEVEIK
notes: recombinant rabbit IgG
Take B5: in the experiment with recombinant LILRB1 [1], the EC50 worked out at 0.011 µg/mL. Moreover, in the experiment with recombinant LILRB1 [2], the Kd stood at 3.03 nM, the dissociation rate constant (koff) was 0.000209 s⁻¹ and the kon was determined as 68900 M⁻¹ s⁻¹.

B6: B1-#204 (antibody, V domains shown)
VH: QSVKESGGGLVKPGGTLTLTCTASGFSFSSSYCMCWVRQAPGKGLELIACIYTDSSGATYYASWAKGRFTISKSSSTTITLQMTSLTAADTATYFCARGWDYEDPGYTDTTYFSLWGPGTLVTVSS
VL: ELDMTQTPSSVEAAVGGTVTIKCQASQTIYTNLAWYQQKPGQPPNLLIYAASTLASGVSSRFKGSGSGTEFTLTISDLECADAATYYCQSYYGSSTTGNGFGGGTEVEIN
notes: recombinant rabbit IgG
On to B6, for which the binding result in the experiment with LILRA1 is “no binding (tested: not given)”. The concentration for a half-maximal effect (EC50) with recombinant LILRB1 [1] was determined as 0.00737 µg/mL.

B7: B1-176-N297A (antibody, V domains shown)
VH: QSLEESEGGLVKPGGTLTLTCTASGFSFSSSYCMCWVRQAPGKGLELIACIYTDSSGATYYASWAKGRFTISKSSSTTITLQMTSLTAADTATYFCARGWDYEDPGYTDTTYFSLWGPGTLVTVSS
VL: ELDLTQTPSSVEAAVGGTVTIKCQASQTIYTNLAWYQQKPGQPPNLLIYAASTLASGVSSRFKGSGSGTEFTLTISDLECADAATYYCQSYYGSSTTGNGFGGGTEVEIK
Take B7: the Kd in experiment [3] came out at 0.17 nM.

B8: B1-#93 (antibody, V domains shown)
VH: EQSVEESGGDLVKPGTSLTLTCTASGFSFSGNTICWVRQAPGKRPEWIACIYPSSTSITTYATWAKGRFTVSKTSSTTVTLQMTSLTAADTATYFCARRYAAFLTYGSGAFDPWGPGTLVTISS
VL: ELDLTQTPASVSAAVGGTVTINCQASESIGSALAWYQQKPGQPPKLLIYSASALASGVPSRFKGSGSGTEYTLTISDLECADAATYYCQSYYGSGTTALDTFGGGTEVEIK
notes: recombinant rabbit IgG
As to B8, the EC50 in the experiment with recombinant LILRB1 [1] is 0.482 µg/mL. Further, in the experiment with recombinant LILRB1 [2], the dissociation constant (Kd) turned out to be 8.54 nM, the koff is 0.000338 s⁻¹ and the kon amounted to 39600 M⁻¹ s⁻¹.

B9: B1-#27 (antibody, V domains shown)
VH: EQSVKESGGGLVQPEGSLTLTCTVSGFSFSGSYWICWVRQAPGKGLEWIACIYGDSIATYYPNWAKGRFTISKTSSTTVTLQMASLTGADTATYFCARDRNGGSGAYGWDLWGPGTLVTISS
VL: ELDLTQTPASVSEPVGGTVTITCQASQSISSYLSWYQQTPGQPPKLLIYKASTLASGVPSRFKGSGSGTEFTLTISDLECADAATYYCQSYYYISATVDNTFGGGTEVEIK
notes: recombinant rabbit IgG
B9: the EC50 in the experiment with recombinant LILRB1 [1] is 0.00794 µg/mL. In addition, in the experiment with recombinant LILRB1 [2], the Kd came out at 1.27 nM, the koff stood at 0.000161 s⁻¹ and the kon came to 127000 M⁻¹ s⁻¹.

B10: B1-#5 (antibody, V domains shown)
VH: EQSLEESGGDLVKPEGSLTLTCTASELSFSSAYYMCWVRQAPGKGLEWIGCIYSGDGDTYYANWAKGRFTISKTSSTTVTLQMTSLTDADTATYFCARALDSHYSSFDLWGPGTLVTISS
VL: ELDMTQTPSSVSAAVGDTVTIKCQASQSIYRYLAWYQQKPGQRPSLLIYYGSDLASGVPSRFSGSGSGTEFTLTISDLECADAASYYCQTTYDDYHNGWAFGGGTNVEIN
notes: recombinant rabbit IgG
For B10, in the experiment with LILRA1, the binding result is “binds”. Moreover, the EC50 with recombinant LILRB1 [1] is 0.00602 µg/mL.

B11: B1-#190 (antibody, V domains shown)
VH: QEQLKESGGDLVKPEGSLTLTCTASGFSFSSDYWVCWVRQAPGKGPEWIGCIYTGDDDTYYASWAKGRFTISKTSSTTVTLEVTSLTAADTATYFCARGLTIGTAELYFWGPGTVVTVSS
VL: ELVLTQTPSPVSAAVGGTVTINCQASQSISNELSWYQQKPGQPPKLLIYLASTLDSGVPSRFKGSGSGTQFTLTISDLECADAATYYCQSHYYGGSSDYGWAFGGGTEVVVK
notes: recombinant rabbit IgG
In the case of B11, the binding result with LILRA1 is “binds”. Further, the concentration for a half-maximal effect (EC50) with recombinant LILRB1 [1] is 0.00678 µg/mL.

B12: humanized B1-176 with heavy chain Hu-176 VH-1 and light chain Hu-176 VL (antibody, V domains shown)
VH: EVQLVESGGGLVQPGGSLRLSCAASGFSFSSSYCMCWVRQAPGKGLEWVSCIYTDSSGATYYASWAKGRFTISRHNSKNTLYLQMNSLRAEDTAVYYCARGWDYEDPGYTDTTYFSLWGRGTLVTVSS
VL: DIQLTQSPSFLSASVGDRVTITCQASQTIYTNLAWYQQKPGKAPKLLIYAASTLASGVPSRFSGSGSGTEFTLTISSLQPEDFATYYCQSYYGSSTTGNGFGGGTKVEIK
B12: the binding result in experiment [4] is reported as “binds”.

B13: Hu B1-176-LALAPG (antibody, V domains shown)
VH: EVQLVESGGGLVQPGGSLRLSCAASGFSFSSSYCMCWVRQAPGKGLELVSCIYTDSSGATYYASWAKGRFTISRHNSKNTLYLQMNSLRAEDTAVYYCARGWDYEDPGYTDTTYFSLWGRGTLVTVSS
VL: DIQLTQSPSFLSASVGDRVTITCQASQTIYTNLAWYQQKPGKAPKLLIYAASTLASGVPSRFSGSGSGTEFTLTISSLQPEDFATYYCQSYYGSSTTGNGFGGGTKVEIK
notes: Human IgG1 with L234A, L235A and P329G
On to B13, for which the 50% effective concentration (EC50 (read off the curve)) in experiment [5] is ~0.04 µg/mL.

B14: Hu B1-176-N297A (antibody, V domains shown)
VH: EVQLVESGGGLVQPGGSLRLSCAASGFSFSSSYCMCWVRQAPGKGLELVSCIYTDSSGATYYASWAKGRFTISRHNSKNTLYLQMNSLRAEDTAVYYCARGWDYEDPGYTDTTYFSLWGRGTLVTVSS
VL: DIQLTQSPSFLSASVGDRVTITCQASQTIYTNLAWYQQKPGKAPKLLIYAASTLASGVPSRFSGSGSGTEFTLTISSLQPEDFATYYCQSYYGSSTTGNGFGGGTKVEIK
notes: Human IgG1 with N297A
Regarding B14, the Kd in experiment [3] was determined as 0.351 nM.
